Starred links: 1 amine or outer side, 2 acyl side, 3 side chain; linkers in the order of their positions; H or OH if unused. Positions of bridges follow the written chain, without caps; N, C: chain ends. Non-standard residues stand in square brackets, D forms with d. Groups on a side chain read outwards from the residue. *: point of attachment. Trp(1-Me) = Cn1cc(C[C@H](N)C(=O)O)c2ccccc21; C16 diacid = O=C(O)CCCCCCCCCCCCCCC(=O)*; γGlu = O=C(O)[C@H](CCC(=O)[*:2])N[*:1]; NMeI = CC[C@H](C)[C@H](NC)C(=O)O; AEEA = NCCOCCOCC(=O)O; Sar = CNCC(=O)O
The binders below were run against Human C3 (human, UniProt P01024 23-1663) (assay: cell-based or functional assay).
Chain of Human C3 (P01024 23-1663 limits assumed): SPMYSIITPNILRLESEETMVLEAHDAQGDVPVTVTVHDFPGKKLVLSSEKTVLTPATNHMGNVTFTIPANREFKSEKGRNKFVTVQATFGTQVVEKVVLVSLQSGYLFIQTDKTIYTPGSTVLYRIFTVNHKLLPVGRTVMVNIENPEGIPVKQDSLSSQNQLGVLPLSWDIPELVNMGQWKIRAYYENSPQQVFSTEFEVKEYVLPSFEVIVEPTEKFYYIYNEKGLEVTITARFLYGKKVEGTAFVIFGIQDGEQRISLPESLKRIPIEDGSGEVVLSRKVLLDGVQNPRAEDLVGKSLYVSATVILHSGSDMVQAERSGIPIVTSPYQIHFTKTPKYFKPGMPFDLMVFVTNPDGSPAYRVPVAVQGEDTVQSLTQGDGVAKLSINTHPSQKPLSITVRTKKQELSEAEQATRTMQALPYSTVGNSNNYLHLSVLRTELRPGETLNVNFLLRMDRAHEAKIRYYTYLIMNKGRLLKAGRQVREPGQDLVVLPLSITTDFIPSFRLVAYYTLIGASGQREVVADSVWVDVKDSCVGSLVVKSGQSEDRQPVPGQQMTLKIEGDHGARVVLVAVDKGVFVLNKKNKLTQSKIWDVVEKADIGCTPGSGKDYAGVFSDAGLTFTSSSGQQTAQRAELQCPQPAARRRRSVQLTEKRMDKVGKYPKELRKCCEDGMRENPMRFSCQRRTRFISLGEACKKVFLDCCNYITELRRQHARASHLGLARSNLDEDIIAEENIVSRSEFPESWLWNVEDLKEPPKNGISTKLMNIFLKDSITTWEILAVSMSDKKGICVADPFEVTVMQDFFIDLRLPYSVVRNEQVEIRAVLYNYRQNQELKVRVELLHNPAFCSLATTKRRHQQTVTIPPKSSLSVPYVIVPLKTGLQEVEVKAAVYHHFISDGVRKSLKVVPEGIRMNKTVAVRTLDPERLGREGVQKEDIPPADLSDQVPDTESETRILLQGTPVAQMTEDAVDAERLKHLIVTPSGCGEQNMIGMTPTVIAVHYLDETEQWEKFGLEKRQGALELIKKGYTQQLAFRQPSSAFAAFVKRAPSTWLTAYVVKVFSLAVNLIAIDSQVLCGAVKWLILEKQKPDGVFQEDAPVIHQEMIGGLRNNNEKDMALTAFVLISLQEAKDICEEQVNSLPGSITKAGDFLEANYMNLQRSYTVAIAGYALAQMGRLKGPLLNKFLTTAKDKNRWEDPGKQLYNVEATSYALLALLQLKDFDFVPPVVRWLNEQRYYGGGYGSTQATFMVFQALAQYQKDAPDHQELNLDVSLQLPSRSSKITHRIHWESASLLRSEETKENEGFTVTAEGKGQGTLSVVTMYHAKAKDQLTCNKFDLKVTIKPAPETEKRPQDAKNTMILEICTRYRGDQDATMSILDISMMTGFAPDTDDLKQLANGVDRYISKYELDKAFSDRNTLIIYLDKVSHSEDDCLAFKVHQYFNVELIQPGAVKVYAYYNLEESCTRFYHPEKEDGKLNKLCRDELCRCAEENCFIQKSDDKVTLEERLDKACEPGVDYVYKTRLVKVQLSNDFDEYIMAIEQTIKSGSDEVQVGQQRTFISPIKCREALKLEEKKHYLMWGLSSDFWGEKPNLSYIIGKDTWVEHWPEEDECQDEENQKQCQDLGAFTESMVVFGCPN

Binder | IC50[nM], inhibition of hemolysis [nM]
Ac-YCIWQDWGEHRCTGAES-NH2 (disulfide 2-12; SMILES CC[C@H](C)[C@@H]1NC(=O)[C@@H](NC(=O)[C@H](Cc2ccc(O)cc2)NC(C)=O)CSSC[C@@H](C(=O)N[C@H](C(=O)NCC(=O)N[C@@H](C)C(=O)N[C@@H](CCC(=O)O)C(=O)N[C@@H](CO)C(N)=O)[C@@H](C)O)NC(=O)[C@H](CCCNC(=N)N)NC(=O)[C@H](Cc2c[nH]cn2)NC(=O)[C@H](CCC(=O)O)NC(=O)CNC(=O)[C@H](Cc2c[nH]c3ccccc23)NC(=O)[C@H](CC(=O)O)NC(=O)[C@H](CCC(N)=O)NC(=O)[C@H](Cc2c[nH]c3ccccc23)NC1=O) [Compound 66] | < 100
Ac-EGSAICIWQDWGEHRCTE-NH2 (disulfide 6-16; SMILES CC[C@H](C)[C@H](NC(=O)[C@H](C)NC(=O)[C@H](CO)NC(=O)CNC(=O)[C@H](CCC(=O)O)NC(C)=O)C(=O)N[C@H]1CSSC[C@@H](C(=O)N[C@H](C(=O)N[C@@H](CCC(=O)O)C(N)=O)[C@@H](C)O)NC(=O)[C@H](CCCNC(=N)N)NC(=O)[C@H](Cc2c[nH]cn2)NC(=O)[C@H](CCC(=O)O)NC(=O)CNC(=O)[C@H](Cc2c[nH]c3ccccc23)NC(=O)[C@H](CC(=O)O)NC(=O)[C@H](CCC(N)=O)NC(=O)[C@H](Cc2c[nH]c3ccccc23)NC(=O)[C@H]([C@@H](C)CC)NC1=O) [Compound 55] | < 250
Ac-ICIWQDWGEHRCTEGK([γGlu-C16 diacid])-NH2 (disulfide 2-12; SMILES CC[C@H](C)[C@H](NC(C)=O)C(=O)N[C@H]1CSSC[C@@H](C(=O)N[C@H](C(=O)N[C@@H](CCC(=O)O)C(=O)NCC(=O)N[C@@H](CCCCNC(=O)CC[C@H](NC(=O)CCCCCCCCCCCCCCC(=O)O)C(=O)O)C(N)=O)[C@@H](C)O)NC(=O)[C@H](CCCNC(=N)N)NC(=O)[C@H](Cc2c[nH]cn2)NC(=O)[C@H](CCC(=O)O)NC(=O)CNC(=O)[C@H](Cc2c[nH]c3ccccc23)NC(=O)[C@H](CC(=O)O)NC(=O)[C@H](CCC(N)=O)NC(=O)[C@H](Cc2c[nH]c3ccccc23)NC(=O)[C@H]([C@@H](C)CC)NC1=O) [Compound 92] | < 1000
Ac-YCI[Trp(1-Me)]QDWGEHRCTGAES-NH2 (disulfide 2-12; SMILES CC[C@H](C)[C@@H]1NC(=O)[C@@H](NC(=O)[C@H](Cc2ccc(O)cc2)NC(C)=O)CSSC[C@@H](C(=O)N[C@H](C(=O)NCC(=O)N[C@@H](C)C(=O)N[C@@H](CCC(=O)O)C(=O)N[C@@H](CO)C(N)=O)[C@@H](C)O)NC(=O)[C@H](CCCNC(=N)N)NC(=O)[C@H](Cc2c[nH]cn2)NC(=O)[C@H](CCC(=O)O)NC(=O)CNC(=O)[C@H](Cc2c[nH]c3ccccc23)NC(=O)[C@H](CC(=O)O)NC(=O)[C@H](CCC(N)=O)NC(=O)[C@H](Cc2cn(C)c3ccccc23)NC1=O) [Compound 62] | < 100
H-[dY]ICI[Trp(1-Me)]QDW[Sar]AHRC[NMeI]-NH2 (disulfide 3-13; SMILES CC[C@H](C)[C@H](NC(=O)[C@H](N)Cc1ccc(O)cc1)C(=O)N[C@H]1CSSC[C@@H](C(=O)N(C)[C@H](C(N)=O)[C@@H](C)CC)NC(=O)[C@H](CCCNC(=N)N)NC(=O)[C@H](Cc2c[nH]cn2)NC(=O)[C@H](C)NC(=O)CN(C)C(=O)[C@H](Cc2c[nH]c3ccccc23)NC(=O)[C@H](CC(=O)O)NC(=O)[C@H](CCC(N)=O)NC(=O)[C@H](Cc2cn(C)c3ccccc23)NC(=O)[C@H]([C@@H](C)CC)NC1=O) [Compound 48] | < 100
Ac-ICIWQDWGAHRCTGAES-NH2 (disulfide 2-12; SMILES CC[C@H](C)[C@H](NC(C)=O)C(=O)N[C@H]1CSSC[C@@H](C(=O)N[C@H](C(=O)NCC(=O)N[C@@H](C)C(=O)N[C@@H](CCC(=O)O)C(=O)N[C@@H](CO)C(N)=O)[C@@H](C)O)NC(=O)[C@H](CCCNC(=N)N)NC(=O)[C@H](Cc2c[nH]cn2)NC(=O)[C@H](C)NC(=O)CNC(=O)[C@H](Cc2c[nH]c3ccccc23)NC(=O)[C@H](CC(=O)O)NC(=O)[C@H](CCC(N)=O)NC(=O)[C@H](Cc2c[nH]c3ccccc23)NC(=O)[C@H]([C@@H](C)CC)NC1=O) [Compound 47] | < 100
Ac-ICI[Trp(1-Me)]QDWGEHRCTGAES-NH2 (disulfide 2-12; SMILES CC[C@H](C)[C@H](NC(C)=O)C(=O)N[C@H]1CSSC[C@@H](C(=O)N[C@H](C(=O)NCC(=O)N[C@@H](C)C(=O)N[C@@H](CCC(=O)O)C(=O)N[C@@H](CO)C(N)=O)[C@@H](C)O)NC(=O)[C@H](CCCNC(=N)N)NC(=O)[C@H](Cc2c[nH]cn2)NC(=O)[C@H](CCC(=O)O)NC(=O)CNC(=O)[C@H](Cc2c[nH]c3ccccc23)NC(=O)[C@H](CC(=O)O)NC(=O)[C@H](CCC(N)=O)NC(=O)[C@H](Cc2cn(C)c3ccccc23)NC(=O)[C@H]([C@@H](C)CC)NC1=O) [Compound 51] | < 100
Ac-ICIWQDWGEHRCTEGK([AEEA-AEEA-γGlu-C16 diacid])-NH2 (disulfide 2-12; SMILES CC[C@H](C)[C@H](NC(C)=O)C(=O)N[C@H]1CSSC[C@@H](C(=O)N[C@H](C(=O)N[C@@H](CCC(=O)O)C(=O)NCC(=O)N[C@@H](CCCCNC(=O)COCCOCCNC(=O)COCCOCCNC(=O)CC[C@H](NC(=O)CCCCCCCCCCCCCCC(=O)O)C(=O)O)C(N)=O)[C@@H](C)O)NC(=O)[C@H](CCCNC(=N)N)NC(=O)[C@H](Cc2c[nH]cn2)NC(=O)[C@H](CCC(=O)O)NC(=O)CNC(=O)[C@H](Cc2c[nH]c3ccccc23)NC(=O)[C@H](CC(=O)O)NC(=O)[C@H](CCC(N)=O)NC(=O)[C@H](Cc2c[nH]c3ccccc23)NC(=O)[C@H]([C@@H](C)CC)NC1=O) [Compound 93] | < 500
Ac-ESSAICIWQDWGAHRCT-NH2 (disulfide 6-16; SMILES CC[C@H](C)[C@H](NC(=O)[C@H](C)NC(=O)[C@H](CO)NC(=O)[C@H](CO)NC(=O)[C@H](CCC(=O)O)NC(C)=O)C(=O)N[C@H]1CSSC[C@@H](C(=O)N[C@H](C(N)=O)[C@@H](C)O)NC(=O)[C@H](CCCNC(=N)N)NC(=O)[C@H](Cc2c[nH]cn2)NC(=O)[C@H](C)NC(=O)CNC(=O)[C@H](Cc2c[nH]c3ccccc23)NC(=O)[C@H](CC(=O)O)NC(=O)[C@H](CCC(N)=O)NC(=O)[C@H](Cc2c[nH]c3ccccc23)NC(=O)[C@H]([C@@H](C)CC)NC1=O) [Compound 46] | < 100
Ac-SEFCI[Trp(1-Me)]QDWGEHRC[Sar]EA-NH2 (disulfide 4-14; SMILES CC[C@H](C)[C@@H]1NC(=O)[C@@H](NC(=O)[C@H](Cc2ccccc2)NC(=O)[C@H](CCC(=O)O)NC(=O)[C@H](CO)NC(C)=O)CSSC[C@@H](C(=O)N(C)CC(=O)N[C@@H](CCC(=O)O)C(=O)N[C@@H](C)C(N)=O)NC(=O)[C@H](CCCNC(=N)N)NC(=O)[C@H](Cc2c[nH]cn2)NC(=O)[C@H](CCC(=O)O)NC(=O)CNC(=O)[C@H](Cc2c[nH]c3ccccc23)NC(=O)[C@H](CC(=O)O)NC(=O)[C@H](CCC(N)=O)NC(=O)[C@H](Cc2cn(C)c3ccccc23)NC1=O) [Compound 75] | < 100
Ac-SE[Sar]CI[Trp(1-Me)]QDWGEHRCTEA-NH2 (disulfide 4-14; SMILES CC[C@H](C)[C@@H]1NC(=O)[C@@H](NC(=O)CN(C)C(=O)[C@H](CCC(=O)O)NC(=O)[C@H](CO)NC(C)=O)CSSC[C@@H](C(=O)N[C@H](C(=O)N[C@@H](CCC(=O)O)C(=O)N[C@@H](C)C(N)=O)[C@@H](C)O)NC(=O)[C@H](CCCNC(=N)N)NC(=O)[C@H](Cc2c[nH]cn2)NC(=O)[C@H](CCC(=O)O)NC(=O)CNC(=O)[C@H](Cc2c[nH]c3ccccc23)NC(=O)[C@H](CC(=O)O)NC(=O)[C@H](CCC(N)=O)NC(=O)[C@H](Cc2cn(C)c3ccccc23)NC1=O) [Compound 82] | < 100

Reference: patent US20220306695A1, “COMPSTATIN ANALOGUES AND THEIR MEDICAL USES” (priority 2019, published 2022)
